Target: H1 HA (recombinant HA of Figure 4E) (Influenza A virus, H1 subtype; strain …, UniProt A0A1J0CXU0)
Experiment: BLI

B1: mAb 789-203-3C12 (IgG) (antibody, V domains shown)
VH: QVQLQESGPGLVKPSEILSLTCAVSGGSFSSYCWGWIRQPPGKGLEWIGSICGSGGSNYLNPSLKSRVTLSVDTSKNQFSLILNSVTAADTAVYYCAREGITIFGVVIPRVLDSWGQGAVVTVSS
VL: DIQMTQSPSSLSASVGDTVTITCRASQSISSWLAWYQQKPGKAPNLLIYRASTLQSGVPSRFSGSGSGTDFTLTISSLQSEDFATYFCQQSTSSPFTFGPGTKLDIK
- binding result: binds

From publication PMC9772109 (Immunity, 2022)
